pKd: −log10 of the molar value.
Molecular target: NTD (SARS-CoV-2) (UniProt P0DTC9)
Assay: fluorescence anisotropy
Details: Anisotropy: 50 mM Na phosphate pH 6.5, 150 mM NaCl, 1 mM NaN3, 50 nM RNA; EMSA: 20 mM Tris pH 7.5, 150 mM NaCl, 1 mM DTT, room temp, 25 uM RNA; NTD NMR: 20 mM …

“GGCACAUGGACGUC / GACGUCCAUGUGCC [ds-14mer]” gave a pKd of 4.52.

Source: article PMC10605006
